In patent US20260185118A1 (priority 2023, published 2026):
Where two headings read alike, the source gives them in different places.

How the values were obtained:
bacterial and fungal = settings: it has been shown; cited from earlier work
CsPUB21 = type: biochemical, Citrus sinensis; settings: in the presence of E1 (AtUBA1) and E2 (AtUBC8), anti-c-myc immunoblot
CsMYC2 [1] = type: cell-based, Citrus sinensis; settings: tobacco leaves, 2-3 days, cytoplasm and nucleus
[2] = system: Huanglongbing pathogen CLas; type: in vivo, Candidatus Liberibacter asiaticus; settings: for pathogen titer versus vector control: qPCR, newborn leaves; for disease phenotype: 3 months after grafting infected branches onto transgenic citrus
[3] = system: terpene synthase CsTPS21 gene cluster; type: in vivo, Valencia orange; settings: transgenic citrus leaves overexpressing, compared with blank vector control
CsMYC2 [4] = type: binding, Citrus sinensis; settings: yeast AH109, SD-Leu-Trp-His with 5 mM 3-AT
CsMYC2 protein = type: cell-based, Citrus sinensis; settings: tobacco leaves, 35S:CsMYC2-myc co-injected, versus 35S:YFP
CsMYC2 [5] = type: biochemical, Citrus sinensis; settings: with AtUBA1, AtUBC8 and ubiquitin, anti-MBP immunoblot
[6] = system: Huanglongbing pathogen CLas; type: in vivo, Candidatus Liberibacter asiaticus; settings: 7 days after feeding of CLas-carrying psyllids, qPCR
[7] = system: Huanglongbing pathogen CLas; parameters: species or system Candidatus Liberibacter asiaticus; settings: in vivo
[8] = type: biochemical, Citrus sinensis L.Osbeck; settings: 2 μg protein, 10 μg FPP, 30° C., 30 min

C=C1CC/C=C(\C)CC[C@@H]2[C@@H]1CC2(C)C [β-caryophyllene]
bacterial and fungal killing effect (bacterial and fungal): rapid bacterial and fungal killing effect

B1: CsPUB21-Myc (protein)
chain: MILSWKRLRGGRGRRAGKKQPGVESGGEMELTTPNHFRCPISLDLMKDPVTLSTGITYDRENIEKWIHEDGNITCPVTNRVLTSFEPIPNHTIRRMIQDWCVENRSYGIERIPTPRIPVSSVEVFEINCNITTACKSEDQAGCRDLVAKIKKWTKESDRNKRCIVDNGAVSVLAEAFETFSKTCLDENVSVLEEILSTLTLLFPLAGEGLTYLGSASSMRCMVWFLKSGDLSRRRNAVLVLREIVSSDHRKVNVLLDIEGAIEPLFKLIKEPICPTATKASLVVVYRTITSASATEKPIQKFVDMGLVSLLLEMLVDAQRSLCEKALSVLDGLCSSDYGRGDAYNNSLIFPVIVKKILRVSDLATEFAVSILWKLCKNEEREEKTAFAEALQVGAFQKLLLLLQVGCADKTKEHVSELLKLLNPHRARLECIDSMDFKDLKRPF
polyubiquitination of MBP-CsMYC2 (immunoblot with anti-MBP tag antibody; E. coli system with AtUBA1, AtUBC8 and FLAG-UBQ) (MBP-CsMYC2-HA): CsPUB21 is able to effectively polyubiquitinate the CsMYC2 protein in vitro

B2: CsPUB21: citrus plant U-box E3 ubiquitin ligase protein, amino acid sequence SEQ ID No. 1; overexpressed in citrus (protein)
chain: MILSWKRLRGGRGRRAGKKQPGVESGGEMELTTPNHFRCPISLDLMKDPVTLSTGITYDRENIEKWIHEDGNITCPVTNRVLTSFEPIPNHTIRRMIQDWCVENRSYGIERIPTPRIPVSSVEVFEINCNITTACKSEDQAGCRDLVAKIKKWTKESDRNKRCIVDNGAVSVLAEAFETFSKTCLDENVSVLEEILSTLTLLFPLAGEGLTYLGSASSMRCMVWFLKSGDLSRRRNAVLVLREIVSSDHRKVNVLLDIEGAIEPLFKLIKEPICPTATKASLVVVYRTITSASATEKPIQKFVDMGLVSLLLEMLVDAQRSLCEKALSVLDGLCSSDYGRGDAYNNSLIFPVIVKKILRVSDLATEFAVSILWKLCKNEEREEKTAFAEALQVGAFQKLLLLLQVGCADKTKEHVSELLKLLNPHRARLECIDSMDFKDLKRPF
E3 ubiquitin ligase activity (auto-ubiquitination) (CsPUB21): has the E3 ubiquitin ligase activity | interaction with CsMYC2 (BiFC) (CsMYC2 [1]): confirmed | pathogen titer versus vector control ([2]; 2 and 3 months of pathogen infestation): significantly higher than that of the vector control | disease phenotype [2]: show disease characteristics of Huanglongbing infection | expression of four CsTPS21 genes (CsTPS21-2, CsTPS21-7, CsTPS21-9, CsTPS21-10) [3]: significantly reduces | interaction with CsMYC2 (yeast two-hybrid) (CsMYC2 [4]): interaction between CsPUB21 and CsMYC2 was confirmed | accumulated level of the CsMYC2 protein on coexpression (CsMYC2 protein): significantly reduced | polyubiquitination of the CsMYC2 protein in vitro (CsMYC2 [5]): able to effectively polyubiquitinate

B3: YFP-CsPUB21DN (protein)
chain: MILSWKRLRGGRGRRAGKKQPGVESGGEMELTTPNHFRAPISLDLMKDPVTLSTGITYDRENIEKWIHEDGNITCPVTNRVLTSFEPIPNHTIRRMIQDWCVENRSYGIERIPTPRIPVSSVEVFEINCNITTACKSEDQAGCRDLVAKIKKWTKESDRNKRCIVDNGAVSVLAEAFETFSKTCLDENVSVLEEILSTLTLLFPLAGEGLTYLGSASSMRCMVWFLKSGDLSRRRNAVLVLREIVSSDHRKVNVLLDIEGAIEPLFKLIKEPICPTATKASLVVVYRTITSASATEKPIQKFVDMGLVSLLLEMLVDAQRSLCEKALSVLDGLCSSDYGRGDAYNNSLIFPVIVKKILRVSDLATEFAVSILWKLCKNEEREEKTAFAEALQVGAFQKLLLLLQVGCADKTKEHVSELLKLLNPHRARLECIDSMDFKDLKRPF
accumulated level of the CsMYC2 protein on co-expression in tobacco leaves (immunoblot, anti-c-myc) (CsMYC2-myc): this reduction was inhibited by coexpression of CsPUB21DN

B4: CsPUB21DN (protein)
chain: MILSWKRLRGGRGRRAGKKQPGVESGGEMELTTPNHFRAPISLDLMKDPVTLSTGITYDRENIEKWIHEDGNITCPVTNRVLTSFEPIPNHTIRRMIQDWCVENRSYGIERIPTPRIPVSSVEVFEINCNITTACKSEDQAGCRDLVAKIKKWTKESDRNKRCIVDNGAVSVLAEAFETFSKTCLDENVSVLEEILSTLTLLFPLAGEGLTYLGSASSMRCMVWFLKSGDLSRRRNAVLVLREIVSSDHRKVNVLLDIEGAIEPLFKLIKEPICPTATKASLVVVYRTITSASATEKPIQKFVDMGLVSLLLEMLVDAQRSLCEKALSVLDGLCSSDYGRGDAYNNSLIFPVIVKKILRVSDLATEFAVSILWKLCKNEEREEKTAFAEALQVGAFQKLLLLLQVGCADKTKEHVSELLKLLNPHRARLECIDSMDFKDLKRPF
modifications: left off: large carriers
disease phenotype [2]: still show a healthy state | pathogen titer versus vector control ([2]; 3 months of infestation): lower pathogen titer than the vector control plants | CLas detection versus vector control plants [6]: significantly lower than that of the vector control plants | Ct values versus healthy plants [6]: no difference in the Ct values | concentration of CLas in the susceptible leaves [7]: significantly reduced

B5: CsPUB21DN-Myc (protein)
chain: MILSWKRLRGGRGRRAGKKQPGVESGGEMELTTPNHFRAPISLDLMKDPVTLSTGITYDRENIEKWIHEDGNITCPVTNRVLTSFEPIPNHTIRRMIQDWCVENRSYGIERIPTPRIPVSSVEVFEINCNITTACKSEDQAGCRDLVAKIKKWTKESDRNKRCIVDNGAVSVLAEAFETFSKTCLDENVSVLEEILSTLTLLFPLAGEGLTYLGSASSMRCMVWFLKSGDLSRRRNAVLVLREIVSSDHRKVNVLLDIEGAIEPLFKLIKEPICPTATKASLVVVYRTITSASATEKPIQKFVDMGLVSLLLEMLVDAQRSLCEKALSVLDGLCSSDYGRGDAYNNSLIFPVIVKKILRVSDLATEFAVSILWKLCKNEEREEKTAFAEALQVGAFQKLLLLLQVGCADKTKEHVSELLKLLNPHRARLECIDSMDFKDLKRPF
polyubiquitination of MBP-CsMYC2 (immunoblot with anti-MBP tag antibody; E. coli system with AtUBA1, AtUBC8 and FLAG-UBQ) (MBP-CsMYC2-HA): CsPUB21DN cannot ubiquitinate CsMYC2

B6: YFP-CsPUB21 (protein)
chain: MILSWKRLRGGRGRRAGKKQPGVESGGEMELTTPNHFRCPISLDLMKDPVTLSTGITYDRENIEKWIHEDGNITCPVTNRVLTSFEPIPNHTIRRMIQDWCVENRSYGIERIPTPRIPVSSVEVFEINCNITTACKSEDQAGCRDLVAKIKKWTKESDRNKRCIVDNGAVSVLAEAFETFSKTCLDENVSVLEEILSTLTLLFPLAGEGLTYLGSASSMRCMVWFLKSGDLSRRRNAVLVLREIVSSDHRKVNVLLDIEGAIEPLFKLIKEPICPTATKASLVVVYRTITSASATEKPIQKFVDMGLVSLLLEMLVDAQRSLCEKALSVLDGLCSSDYGRGDAYNNSLIFPVIVKKILRVSDLATEFAVSILWKLCKNEEREEKTAFAEALQVGAFQKLLLLLQVGCADKTKEHVSELLKLLNPHRARLECIDSMDFKDLKRPF
accumulated level of the CsMYC2 protein on co-expression in tobacco leaves (immunoblot, anti-c-myc) (CsMYC2-myc): the accumulated level of the CsMYC2 protein and coexpression of CsPUB21 were significantly reduced

B7: CsTPS21-7: citrus terpene synthase protein, SEQ ID No. 7, purified as GST fusion protein (protein)
chain: MKDMSIPLLAAVSSSTEETVRPIADFHPTLWGNHFLKSAADVETIDAATQEQHAALKQEVRRMITTTANKLAQKLHMIDAVQRLGVAYHFEKEIEDELGKVSHDLDSDDLYVVSLRFRLFRQQGVKISCDVFDKFKDDEGKFKESLINDIRGMLSLYEAAYLAIRGEDILDEAIVFTTTHLKSVISISDHSHVNSNLAEQIRHSLQIPLRKAAARLEARYFLDIYSRDDLHDETLLKFAKLDFNILQAAHQKEASIMTRTKDISEVDTILGVKVKKHSGERANISIIFDFFRWDIGLIDTLPEYMKFIVKALLDIYREAEEELAKEGRSYGIPYAKQMMQELIILYFTEAKWLYKGYVPTFDEYKSVALRSIGLRTLAVASFVDLGDFIATKDNFECILKNAKSLKATETIGRLMDDIAGYKFEQKRGHNPSAVECYKNQHGVSEEEAVKELLLEVANSWKDINEELLNPTTVPLPMLQRLLYFARSGHFIYDDGHDRYTHSLMMKRQVALLLTEPLAI
modifications: GST fusion tag
7-epi-sesquiterpene share of the total compounds [8]: 4.79±0.11% | (E)-β-farnesene share of the total compounds [8]: 5.54±0.32% | sesquiterpene share of the total compounds [8]: 7.86±0.70% | β-caryophyllene share of the total product [8]: 81.81±0.92%
